Patent publication US20110262445A1 (CEPHALON AUSTRALIA, published 2011)
Read-outs that look alike come from different tables or passages of the source. Blank lines part the entries; values can stand above or below the binder they belong to.

B4: Antibody 136 (antibody, human IgG1, kappa, V domains shown)
VH: EVQLVQSGAEVKKPGATVKISCKASGYTFSDYYLHWVRQAPEKGLEWMGWIDPENGDTEYAPKFQGRVTITADTSTDTGYLELSSLRSEDTAVYYCAANKELRYFDVWGQGTLVTVSS
VL: DIQMTQSPSSVSASVGDRVTITCRASQSISINLHWYQQKPGKAPKLLIYFASQSISGVPSRFSGSGSGTDFSLTINSLQTEDFATYYCQQSNSFPLTFGGGTKVEIKR
notes: Humanized PMA204 (1RZ7 framework)

Legend:
[1] = molecular target: B4; assay: SPR control: PMA202 injected over Antibody 136 captured on Protein A, no cytokine
Experimental: (§1) Protein A (Thermo) was immobilized onto a CM5 sensor chip using a BIAcore 3000. Chimeric or humanized antibody at 5 ug/mL in HBS-P (GE Healthcare) was then injected for 1 min at a flow rate of 20 ul/min. IL-12 or IL-23 was then injected over the surface at 5 ug/mL in HBS-P for 1 min at a flow rate of 20 ul/min. Murine antibody was then injected at 5 ug/mL in HBS-P for 1 min at a flow rate of 20 ul/min. Controls in which IL-12 or IL-23 was replaced with HBS-P, and in which the murine antibody was replaced with HBS-P were also performed. All data was substrated from a control run in which IL-12 or IL-23 or the murine antibody was tested for background binding to the Protein A surface.

[2] = molecular target: T1, human IL-12 (human, UniProt P29460 23-328; P29459 23-219); assay: ELISA, coated IL-12
T1 construct: Recombinant (Peprotech); FLAG-tagged IL-12 in the flow cytometry assays, biotinylated in the IL-12Rβ2 assay; also called hIL-12
T1 sequence 1: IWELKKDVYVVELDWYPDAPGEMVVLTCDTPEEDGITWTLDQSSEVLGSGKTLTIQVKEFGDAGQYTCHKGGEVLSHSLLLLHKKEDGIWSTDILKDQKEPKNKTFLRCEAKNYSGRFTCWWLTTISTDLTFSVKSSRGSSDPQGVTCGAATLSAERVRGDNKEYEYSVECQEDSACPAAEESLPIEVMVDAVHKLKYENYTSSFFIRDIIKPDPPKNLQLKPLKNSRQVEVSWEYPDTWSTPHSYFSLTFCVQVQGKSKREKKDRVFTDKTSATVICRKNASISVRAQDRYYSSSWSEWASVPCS
T1 sequence 2: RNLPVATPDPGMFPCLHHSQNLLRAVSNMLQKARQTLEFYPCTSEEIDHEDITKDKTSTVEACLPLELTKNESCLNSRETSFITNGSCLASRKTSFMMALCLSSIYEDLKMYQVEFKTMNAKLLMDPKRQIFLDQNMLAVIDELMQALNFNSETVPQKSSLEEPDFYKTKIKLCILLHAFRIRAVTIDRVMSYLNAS
Experimental: (§2) IL-12 (Peprotech), IL-23 (Ebioscience™), IL-12p40 (Ebioscience™) or IL-12p80 (Peprotech), was diluted to 1 μg/mL in carbonate coating buffer ([…] pH 9.6) and coated onto a 96 well plate (Nunc™, Maxisorp™) overnight at 4° C. The plate was then washed three times with wash buffer (0.01M PBS pH 7.2, 0.05% Tween-20) and then three times with 0.01M PBS pH 7.2. The wells were then blocked by adding 200 μl of blocking buffer (1% w/v BSA in 0.01 M PBS pH 7.2) to each well and incubating the plate at 25° C. for 1 hour. The antibody was diluted in antibody diluent (1% w/v BSA, 0.05% Tween-20 in 0.01M PBS pH 7.2) sufficient to generate a titration curve. The wells were incubated with the antibody for 1 hour at 25° C. The plate was then washed as previously described. Goat anti-human immunoglobulin G (H+L) antibody HRP conjugate (Zymed®) at 1:2000 in antibody diluent was used to detect bound primary antibody. Goat anti-murine immunoglobulin antibody HRP conjugate (Dako) at 1:2000 in antibody diluent was used to detect bound murine antibody. After incubation at 25° C. for 1 hour the plate was washed again as previously described. TMB substrate solution (Zymed®) was added to each well and the colour allowed to develop; the reaction was terminated by adding 1M HCl to the wells. The absorbance of each well was determined at 450 nm (ref. 620 nm).

[3] = molecular target: T2, human IL-23 (human, UniProt P29460 23-328; Q9NPF7 20-189); assay: ELISA, coated IL-23
T2 construct: Recombinant (Ebioscience); HIS-tagged in flow cytometry, biotinylated in some assays; also called hIL-23; rhIL-23
T2 sequence 1: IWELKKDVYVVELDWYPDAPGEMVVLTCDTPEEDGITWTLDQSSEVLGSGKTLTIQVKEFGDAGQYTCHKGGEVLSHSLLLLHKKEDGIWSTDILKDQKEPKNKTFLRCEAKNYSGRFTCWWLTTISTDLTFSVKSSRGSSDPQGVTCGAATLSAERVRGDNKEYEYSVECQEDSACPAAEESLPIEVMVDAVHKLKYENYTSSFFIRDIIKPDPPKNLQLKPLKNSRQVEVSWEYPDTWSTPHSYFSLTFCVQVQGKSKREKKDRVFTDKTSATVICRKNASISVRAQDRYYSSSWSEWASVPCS
T2 sequence 2: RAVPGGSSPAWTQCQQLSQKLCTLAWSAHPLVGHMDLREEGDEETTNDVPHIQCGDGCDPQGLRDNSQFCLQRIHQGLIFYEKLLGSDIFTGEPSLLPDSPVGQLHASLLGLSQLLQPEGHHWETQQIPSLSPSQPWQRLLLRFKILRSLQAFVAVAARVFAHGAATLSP
Experimental: as §2

[4] = molecular target: B4; assay: SPR control: PMA204 injected over Antibody 136 captured on Protein A, no cytokine
Experimental: as §1

[5] = molecular target: T2, human IL-23; assay: neutralization ELISA: IL-23 preincubated with antibody, its binding to coated IL-23R is blocked
Outline: (§3)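 Biotinylated IL-23 at 50 ng/ml was mixed with titrated antibody for 2 hours before being added for 2 hours at 25° C to wells coated overnight at 4° C with His-tagged IL-23R from HEK-293E cells. The wells had been blocked with 1% BSA. After detection with Streptavidin HRP at 1:5000 and 15 minutes of TMB, the reaction was stopped with 1M HCl and read at 450 nm, reference 620 nm. The IC50 was read from the curve.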

[6] = molecular target: T1, human IL-12; assay: neutralization ELISA: IL-12 preincubated with antibody, its binding to coated IL-12Rβ2/Fc is blocked
Outline: (§4)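 IL-12Rβ2/Fc chimera at 5 ug/ml in carbonate buffer was coated overnight at 4° C and blocked with 1% BSA for 1 hour at 25° C. Biotinylated IL-12 was preincubated with titrated antibody for 2 hours, then added to the wells for 2 hours at 25° C. Detection used Streptavidin HRP 1:5000 and TMB, stopped with 1M HCl, with absorbance read at 450 nm (reference 620 nm). IC50 was read off the curve.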

[7] = molecular target: T1, human IL-12; assay: SPR, IgG on Protein A
Experimental: (§5) Using a SPR 3000, Protein A was immobilized onto FC1 and FC2 (or alternatively FC3 and FC4) of a CM5 research grade sensor chip using amine coupling, giving approximately […] RU. FC1 was used a blank throughout the experiments. The experiments were run in HBS-P buffer (SPR). At a flow rate of 20 μl/min, 20 μl of 5 μg/mL of antibody was passed over FC2. IL-12, IL-23 or IL-12p40 (Peprotech) were passed over the surface of FC1 and FC2 at concentrations ranging from 66 nM to 2 nM. Regeneration of the surface was performed using 10 mM Glycine, pH 1.0. The sensorgram data from FC2 was subtracted from FC1 and a buffer only control. The curves were fitted using a 1:1 Langmuir equation to generate the kd, ka and KD values. All curves were fitted with a χ² of less then 2.0 where possible.

[8] = molecular target: T2, human IL-23; assay: SPR, IgG on Protein A
Experimental: as §5

[9] = molecular target: T3, human IL-12p40 (human, UniProt P29460 23-328); assay: SPR, IgG on Protein A
T3 construct: p40 monomer; also called p40 subunit
T3 sequence: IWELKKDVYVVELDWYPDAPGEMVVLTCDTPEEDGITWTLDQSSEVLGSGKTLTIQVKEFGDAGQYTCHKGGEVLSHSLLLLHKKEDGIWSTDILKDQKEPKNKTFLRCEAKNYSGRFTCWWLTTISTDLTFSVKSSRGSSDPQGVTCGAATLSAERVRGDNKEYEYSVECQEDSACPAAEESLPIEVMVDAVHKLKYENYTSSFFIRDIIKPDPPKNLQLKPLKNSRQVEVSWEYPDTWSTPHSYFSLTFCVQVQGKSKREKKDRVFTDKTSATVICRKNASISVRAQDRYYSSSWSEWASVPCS
Experimental: as §5

[10] = molecular target: T1, human IL-12; assay: SPR, IgG on Protein A; remark: listed apart in the source
Experimental: as §5

[11] = molecular target: T2, human IL-23; assay: SPR, IgG on Protein A; remark: listed apart in the source
Experimental: as §5

[12] = molecular target: T3, human IL-12p40; assay: ELISA, coated IL-12p40
Experimental: as §2

[13] = molecular target: T1, human IL-12; assay: SPR, IgG on Protein A; remark: listed apart in the source
Experimental: (§6) Using SPR technology the kₐ and kd and the KD of various humanized antibodies was determined.
as §5

[14] = molecular target: T2, human IL-23; assay: SPR, IgG on Protein A; remark: listed apart in the source
Experimental: as §6, §5

[15] = molecular target: T1, human IL-12; assay: sandwich ELISA: IL-12 held by coated PMA202, Antibody 136 titrated, anti-human Fc-HRP
Outline: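 Capture antibody at 1 μg/mL was coated overnight at 4° C and blocked with 1% BSA. IL-12 at 0.5 μg/ml was bound for 1 hour at 25° C, followed by half-log serial dilutions of test antibody for 1 hour. Bound antibody was detected with goat anti-human IgG Fc-HRP (1:2000) and TMB, stopped with 1 M HCl, and optical density read at 450 nm (reference 620 nm). EC50 was read off the curve.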

[16] = molecular target: T2, human IL-23; assay: sandwich ELISA: IL-23 held by coated PMA202, Antibody 136 titrated, anti-human Fc-HRP
[17] = molecular target: T2, human IL-23; assay: neutralization ELISA: IL-23 preincubated with antibody, its binding to coated IL-23R is blocked; remark: listed apart in the source
Outline: as §3

[18] = molecular target: T1, human IL-12; assay: neutralization ELISA: IL-12 preincubated with antibody, its binding to coated IL-12Rβ2/Fc is blocked; remark: listed apart in the source
Outline: as §4

B3: Antibody 1 (antibody, human IgG1, kappa, V domains shown)
VH: EVQLQQSGADLVRSGASIKLSCTASGFNIKDYYMHWVKQRPEQGLEWIGWIDPENGDTEYAPKFQGKATMTADTSSNTAYLQLSSLTSEDTAVYYCNACKELRYFDVWGAGTTVTVSS
VL: DIVLTQSPATLSVTPGDSVSLSCRASQSISINLHWYQQKSHESPRLLIKFASQSISGIPSRFSGYGSGTDFTLSINSVETEDFGRYFCQQSNSWPLTFGAGTKLELKR
notes: Chimeric PMA204, human IgG1/kappa
Kd [7]: 0.0477 nM | koff [7]: 6.45e-05 s⁻¹ | kon [7]: 1.36e+06 M⁻¹ s⁻¹ | Kd [8]: 0.0446 nM | koff [8]: 0.000114 s⁻¹ | kon [8]: 2.55e+06 M⁻¹ s⁻¹ | Kd [9]: 0.0663 nM | koff [9]: 7.12e-05 s⁻¹ | kon [9]: 1.07e+06 M⁻¹ s⁻¹ | Kd [10]: 0.0795 nM | koff [10]: 0.000132 s⁻¹ | kon [10]: 1.67e+06 M⁻¹ s⁻¹ | Kd [11]: 0.0513 nM | koff [11]: 0.000146 s⁻¹ | kon [11]: 2.85e+06 M⁻¹ s⁻¹ | EC50 (read off the curve) [12]: ~0.03 µg/mL | IC50 (read off the curve) [5]: ~1 µg/mL | IC50 (read off the curve) [6]: ~0.4 µg/mL

Binder: B4
Kd [13]: 0.197 nM | koff [13]: 0.000997 s⁻¹ | kon [13]: 5.05e+06 M⁻¹ s⁻¹ | Kd [14]: 0.105 nM | koff [14]: 0.000795 s⁻¹ | kon [14]: 7.55e+06 M⁻¹ s⁻¹ | EC50 (read off the curve) [15]: ~0.1 µg/mL | EC50 (read off the curve) [16]: ~0.06 µg/mL | IC50 (read off the curve) [17]: ~1 µg/mL | IC50 (read off the curve) [18]: ~0.4 µg/mL

Next, values leading:

binding result [1]: no binding
B1: PMA202 (antibody, V domains shown)
VH: QIQLVQSGPELKKPGETVKISCKASGYTFTNYGMNWVKQAPGKGLKWMGWINTYTGEPTYADDFKGRFAFSLETSASTAYLQINNFKNEDTATYFCARSLSTMITTTFAYWGQGTLVTVSS
VL: SIVMTQTPKFLLVSAGDRVTITCKASQSVSNDVAWYQQKPGQSPKLLIYYASNRYTGVPDRFTGSGYGTDFTFTISTVQAEDLAVYFCQQDYSSPYTFGGGTKLEIKR
notes: Murine hybridoma antibody, murine IgG1kappa

EC50 (read off the curve) [2]: ~0.02 µg/mL | EC50 (read off the curve) [3]: ~0.01 µg/mL | binding result [4]: no binding | IC50 (read off the curve) [5]: ~0.6 µg/mL | IC50 (read off the curve) [6]: ~0.2 µg/mL
B2: PMA204 (antibody, V domains shown)
VH: EVQLQQSGADLVRSGASIKLSCTASGFNIKDYYMHWVKQRPEQGLEWIGWIDPENGDTEYAPKFQGKATMTADTSSNTAYLQLSSLTSEDTAVYYCNACKELRYFDVWGAGTTVTVSS
VL: DIVLTQSPATLSVTPGDSVSLSCRASQSISINLHWYQQKSHESPRLLIKFASQSISGIPSRFSGYGSGTDFTLSINSVETEDFGRYFCQQSNSWPLTFGAGTKLELKR
notes: as for B1
